Results from PMC11555413 (Nature Communications, 2024).

B1: Myc-APRIL (ligand, UniProt O75888 116-250, looked up)
chain: SVLHLVPINATSKDDSDVTEVMWQPALRRGRGLQAQGYGVRIQDAGVYLLYSQVLFQDVTFTMGQVVSREGQGRQETLFRCIRSMPSHPDRAYNSCYSAGVFHLHQGDILSVIIPRARAKLNLSPHGTFLGFVKL
B2: APRIL-Myc (ligand, UniProt O75888 116-250, looked up)
chain: SVLHLVPINATSKDDSDVTEVMWQPALRRGRGLQAQGYGVRIQDAGVYLLYSQVLFQDVTFTMGQVVSREGQGRQETLFRCIRSMPSHPDRAYNSCYSAGVFHLHQGDILSVIIPRARAKLNLSPHGTFLGFVKL

Target: the molecule itself
Assay: SEC

| Protein | stoichiometry N |
| --- | --- |
| B1 | 3 |
| B2 | 3 |
